According to patent US20260265370A1 (SUZHOU TRANSCENTA THERAPEUTICS, published 2026):

Molecular target: T1, human PD-L1 (human, UniProt Q9NZQ7 19-290)
T1 construct: whole, on cells; Endogenous protein in FFPE tumour sections; also called PD-ligand 1
Assay: IHC on FFPE GC-02-0007 PDX tumour sections, Leica BOND III, membrane staining
Experimental: PD-L1 expression status was also assessed to better understand the immune modulation pre- and post Hu18B10-HaLa treatment in GC-02-0007 PDX tumor samples. Immunohistochemistry (IHC) was performed on these 4% neutral buffered formalin fixed paraffin-embedded (FFPE) tumor sections using commercially available Rabbit anti-human PD-L1 monoclonal antibodies (SP263). After deparaffinization and rehydration, all slides were proceeded to antigen retrieval in BOND Epitope Retrieval Solution 2 (Leica, AR9640) for 30 minutes at 97-99° C. Subsequently quenched, blocked with peroxidase inhibitor and incubated with appropriately diluted SP263 (0.2 ug/mL) antibodies for 30 minutes at room temperature (RT). Antibody binding was visualized with BOND Polymer Detection (Leica, DS9800) for 8 minutes on auto-staining Leica BOND III. Sections were finally counterstained with Hematoxylin and mounted with permanent mounting medium.

T1 sequence (Q9NZQ7 19-290): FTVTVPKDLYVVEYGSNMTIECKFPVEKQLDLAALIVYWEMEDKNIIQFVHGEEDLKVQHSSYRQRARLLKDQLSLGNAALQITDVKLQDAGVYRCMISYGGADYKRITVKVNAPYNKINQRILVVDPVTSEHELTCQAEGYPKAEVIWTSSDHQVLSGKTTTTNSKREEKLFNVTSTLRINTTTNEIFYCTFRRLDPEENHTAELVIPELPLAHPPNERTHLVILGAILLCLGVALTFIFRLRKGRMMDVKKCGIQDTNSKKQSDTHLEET

binding result: binds
B1: Rabbit anti-human PD-L1 monoclonal antibody SP263 (antibody, V domains shown)
VH: QSLEESGGRLVTPGTPLTLTCTASGFSLSNHAISWVRQAPGKGLEWIGTINSDTHTYYATWPKGRFTISKTSSTTVDLKMTSPTTEDTATYFCARRIFSSSNIWGPGTLVTVSS
VL: AIVMTQTSSPVSAVVGGTVAINCQASQSIYNNNWLSWFQQKPGQPPKLLIYLASTLASGVPSRFKGSGSGTQFTLTISDVVCDDAATYYCIGGESSNNDGIAFGGGTEVVVK
notes: Commercially available rabbit monoclonal antibody; also called anti-PD-L1 diagnostic antibody SP263
